# Test system: Escherichia coli TOP10
# Assay: shrunken log2 fold change of peptide-encoding DNA abundance (4.5 h post-induction vs induction); higher = less antimicrobial activity (less host growth inhibition)
# Settings: time post-induction: 4.5 h; library: site-saturation at positions 5, 18, 19, 20
# 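Further: peptides expressed intracellularly from a pBAD plasmid library in pooled LB shake-flask culture, induced with 0.3% L-arabinose, DNA abundance read by NGS, three biological replicates, DESeq2 with apeglm shrinkage.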
row,Sequence,shrunken log2 fold change
1,RRIRCRPPRLPRPRPRPFWGPRP,0.0697
2,RRIRPRPPRLPRPRPRPEIAPRP,0.189
3,RRIRYRPPRLPRPRPRPKKYPRP,-0.86
4,RRIRRRPPRLPRPRPRPFPVPRP,0.271
5,RRIRRRPPRLPRPRPRPAVPPRP,0.146
6,RRIRDRPPRLPRPRPRPMIWPRP,-0.0952
7,RRIRQRPPRLPRPRPRPFGYPRP,-0.148
8,RRIRERPPRLPRPRPRPDQIPRP,-0.084
9,RRIRNRPPRLPRPRPRPGMIPRP,0.00966
10,RRIRCRPPRLPRPRPRPNQWPRP,-0.117
11,RRIRQRPPRLPRPRPRPHLSPRP,-0.00594
12,RRIRSRPPRLPRPRPRPHWRPRP,0.39
13,RRIRNRPPRLPRPRPRPANSPRP,-0.153
14,RRIRWRPPRLPRPRPRPTREPRP,0.241
15,RRIRLRPPRLPRPRPRPLGLPRP,-0.253
16,RRIRCRPPRLPRPRPRPMDMPRP,0.00534
17,RRIRLRPPRLPRPRPRPSDDPRP,-0.34
18,RRIRCRPPRLPRPRPRPMPLPRP,-0.643
19,RRIRWRPPRLPRPRPRPWNHPRP,-0.0518
20,RRIRDRPPRLPRPRPRPKEDPRP,0.337
21,RRIRMRPPRLPRPRPRPMLAPRP,2.84
22,RRIRERPPRLPRPRPRPWTPPRP,-0.15
23,RRIRNRPPRLPRPRPRPDNFPRP,-0.00141
24,RRIRDRPPRLPRPRPRPRKIPRP,0.0843
25,RRIRERPPRLPRPRPRPWINPRP,-0.637

row,Sequence,shrunken log2 fold change
1,RRIRQRPPRLPRPRPRPWMHPRP,0.0573
2,RRIRNRPPRLPRPRPRPKKMPRP,-0.233
3,RRIRTRPPRLPRPRPRPAHKPRP,0.0105
4,RRIRTRPPRLPRPRPRPDLMPRP,-0.121
5,RRIRTRPPRLPRPRPRPLFIPRP,-0.746
6,RRIRCRPPRLPRPRPRPWTWPRP,0.00573
7,RRIRMRPPRLPRPRPRPYYQPRP,-0.856
8,RRIRYRPPRLPRPRPRPLTFPRP,-0.696
9,RRIRMRPPRLPRPRPRPDCDPRP,0.0709
10,RRIRLRPPRLPRPRPRPCQTPRP,-0.0348
11,RRIRMRPPRLPRPRPRPLDWPRP,0.474
12,RRIRIRPPRLPRPRPRPQHMPRP,-0.94
13,RRIRARPPRLPRPRPRPGFCPRP,0.572
14,RRIRGRPPRLPRPRPRPIYGPRP,-0.141
15,RRIRVRPPRLPRPRPRPIHVPRP,-0.155
16,RRIRMRPPRLPRPRPRPVSMPRP,0.382
17,RRIRWRPPRLPRPRPRPWRVPRP,-0.245
18,RRIRPRPPRLPRPRPRPGNRPRP,-0.0146
19,RRIRPRPPRLPRPRPRPSTFPRP,0.147
20,RRIRHRPPRLPRPRPRPNNSPRP,-1.11
21,RRIRTRPPRLPRPRPRPGAWPRP,0.12
22,RRIRHRPPRLPRPRPRPQRFPRP,-0.0098
23,RRIRYRPPRLPRPRPRPSCSPRP,-0.972
24,RRIRHRPPRLPRPRPRPSQDPRP,-0.032
25,RRIRNRPPRLPRPRPRPLKGPRP,-0.0139
